B1: Zinc finger MYM-type protein 3, residues 589 to 668; numbered along this chain, Q14202 (parent)
chain: LSCHYCHSLFSGKPEVLDWQDQVFQFCCRDCCEDFKRLRGVVSQCEHCRQEKLLHEKLRFSGVEKSFCSEGCVLLYKQDF

± gives the uncertainty stated by the source.

Variants of B1 are the subject of the data set. As to the kind of experiment: abundance fitness (aPCA) (normalised: wild type 0, dead -1); higher = more abundant; growth selection in yeast, the domain comes from the species named. As to conditions: Homo sapiens.
On to LSCHYCHSLFSGKPEHLDWQDQVFQFCCRDCCEDFKRLRGVVSQCEHCRQEKLLHEKLRFSGVEKSFCSEGCVLLYKQDF [V16H], for which the abundance fitness was -0.044 ± 0.057. For LSCHYCHSLFSGKPEYLDWQDQVFQFCCRDCCEDFKRLRGVVSQCEHCRQEKLLHEKLRFSGVEKSFCSEGCVLLYKQDF [V16Y] the value was -0.041 ± 0.14. On to LSCHYCHSLFSGKPEILDWQDQVFQFCCRDCCEDFKRLRGVVSQCEHCRQEKLLHEKLRFSGVEKSFCSEGCVLLYKQDF [V16I], for which the abundance fitness was -0.121 ± 0.083. For LSCHYCHSLFSGKPEPLDWQDQVFQFCCRDCCEDFKRLRGVVSQCEHCRQEKLLHEKLRFSGVEKSFCSEGCVLLYKQDF [V16P] the value was -0.099 ± 0.063; for LSCHYCHSLFSGKPELLDWQDQVFQFCCRDCCEDFKRLRGVVSQCEHCRQEKLLHEKLRFSGVEKSFCSEGCVLLYKQDF [V16L], -0.065 ± 0.05. In the case of LSCHYCHSLFSGKPMVLDWQDQVFQFCCRDCCEDFKRLRGVVSQCEHCRQEKLLHEKLRFSGVEKSFCSEGCVLLYKQDF [E15M], the abundance fitness worked out at 0.152 ± 0.089. For LSCHYCHSLFSGKPEVLDWQDQVFQFCCRDCCEDFKRLRGVVSQCEHCMQEKLLHEKLRFSGVEKSFCSEGCVLLYKQDF [R49M] the value was -0.482 ± 0.5. On to LSCHYCHSLFSGKPEVLDWQDQVFQFCCRDCCEDFKRLRGVVSQCEHCAQEKLLHEKLRFSGVEKSFCSEGCVLLYKQDF [R49A], for which the abundance fitness was -0.507 ± 0.2. The same measure for LSCHYCHSLFSGKPEVLDWQDWVFQFCCRDCCEDFKRLRGVVSQCEHCRQEKLLHEKLRFSGVEKSFCSEGCVLLYKQDF [Q22W]: -0.054 ± 0.044; for LSCHYCHSLFSGKPEVLDWQDQVFQFCCRDCCEDFKRLRGVVSQCEHCRQDKLLHEKLRFSGVEKSFCSEGCVLLYKQDF [E51D]: 0.187 ± 0.35.

With LSCHYCHSLFSGKPEVLDWQDQVFQFCCRDCCEDFKRLRGVVSQCEHCRQEKLEHEKLRFSGVEKSFCSEGCVLLYKQDF [L54E], the abundance fitness is -0.866 ± 0.44. For LSCHYYHSLFSGKPEVLDWQDQVFQFCCRDCCEDFKRLRGVVSQCEHCRQEKLLHEKLRFSGVEKSFCSEGCVLLYKQDF [C6Y] the value was -0.828 ± 0.13; for LSCHYCHSLFSGKPEVLDWQDQVFEFCCRDCCEDFKRLRGVVSQCEHCRQEKLLHEKLRFSGVEKSFCSEGCVLLYKQDF [Q25E], 0.226 ± 0.043.

As to LSCHYCHSLFSGKPEVLDWQDQVFIFCCRDCCEDFKRLRGVVSQCEHCRQEKLLHEKLRFSGVEKSFCSEGCVLLYKQDF [Q25I], the abundance fitness is -0.084 ± 0.067.

With LSCHYCHSLFSGKPEVLDWQDQVFQFCCRDCCEDFKRLRGVVSQCMHCRQEKLLHEKLRFSGVEKSFCSEGCVLLYKQDF [E46M], the abundance fitness is -0.631 ± 0.27. The same measure for LSCHYCHSLFSGKPEVLDWQDQVFQFCCRDCCEDFKRLRGVVSQCGHCRQEKLLHEKLRFSGVEKSFCSEGCVLLYKQDF [E46G]: 0.085 ± 0.093; for LSCHYCHSLFSGKPEVLDWQDQVFQFCCRDCCEDFKRLRGVVSQCKHCRQEKLLHEKLRFSGVEKSFCSEGCVLLYKQDF [E46K]: 0.233 ± 0.26. For LSCHYCHSLFSGKPEVDDWQDQVFQFCCRDCCEDFKRLRGVVSQCEHCRQEKLLHEKLRFSGVEKSFCSEGCVLLYKQDF [L17D] the value was -0.332 ± 0.06. Turning to LSCHYCHSLFSGKPEVNDWQDQVFQFCCRDCCEDFKRLRGVVSQCEHCRQEKLLHEKLRFSGVEKSFCSEGCVLLYKQDF [L17N], the abundance fitness was -0.53 ± 0.19. Turning to LSCHYCHSLFSGKPEVIDWQDQVFQFCCRDCCEDFKRLRGVVSQCEHCRQEKLLHEKLRFSGVEKSFCSEGCVLLYKQDF [L17I], the abundance fitness was -0.009 ± 0.091. For LSCHYCHSLFSGKPEVLDWQDQMFQFCCRDCCEDFKRLRGVVSQCEHCRQEKLLHEKLRFSGVEKSFCSEGCVLLYKQDF [V23M], the abundance fitness is 0.338 ± 0.047. In the case of LSCHYCHSLFSGKPEVLDWQDQVFQFCCRDCCEDFKRLRGVVSQCEHCRQEKLLHEKLRFSGVEKSFCSMGCVLLYKQDF [E70M], the abundance fitness was -0.152 ± 0.22. For the variant LSCHYCHSLFSGLPEVLDWQDQVFQFCCRDCCEDFKRLRGVVSQCEHCRQEKLLHEKLRFSGVEKSFCSEGCVLLYKQDF [K13L], the abundance fitness is -0.048 ± 0.048. For LSCHYCHSLFSGKPEVLDWQDQVFQFCCRDCCEDFKRLRGVVSQCEHCRQEKLLHEKLRFSGVEKSFCSEGCVVLYKQDF [L74V] the value was -0.195 ± 0.099; for LSCHYCHSLFSGKPEVLDWQDQVFQFCCRDCCEDFKRLRGIVSQCEHCRQEKLLHEKLRFSGVEKSFCSEGCVLLYKQDF [V41I], 0.195 ± 0.24; for LSCHYCHSLFSGKPEVLDWQDQVFQFCCRDCCEDFKRLRGVVSQTEHCRQEKLLHEKLRFSGVEKSFCSEGCVLLYKQDF [C45T], -0.641 ± 0.26.

Regarding LSCHYCHSLFSGKPEVLDWQDQVFQFCCRDCCEDFKRLRGVVSQCEHCRQEKLLHEKLRFSGVEKSFCSEGCVLDYKQDF [L75D], the abundance fitness turned out to be 0.492 ± 0.17.

LSCHYCHSLFSGKPEVLDIQDQVFQFCCRDCCEDFKRLRGVVSQCEHCRQEKLLHEKLRFSGVEKSFCSEGCVLLYKQDF [W19I]: the abundance fitness was found to be 0.234 ± 0.13. The same measure for LSCHYCHSLFSGKPEVLDWQDQVFQFCCRDCCEDFKRLRGVVSQCEHERQEKLLHEKLRFSGVEKSFCSEGCVLLYKQDF [C48E]: -1.04 ± 0.31; for LSCHYCHSLFSGKPEVLDWQDQVFQFCCRDCCEDFKRLRGVVSQCEHCRQEKLLHEKLRFSGVEKSFCSEGCVLLYFQDF [K77F]: -0.394 ± 0.39. The same measure for LSCHYCHSLFSGKPEVLDWQDQVFQFCCRDCCEDFKRLRGVVSQCEHCRQEKLLHEKLRFSGVEKSFCSEGCVLLYLQDF [K77L]: -0.304 ± 0.18; for LSCHYCHSLFSGKPEVLDWQDQVFQFCCRDCCEDFNRLRGVVSQCEHCRQEKLLHEKLRFSGVEKSFCSEGCVLLYKQDF [K36N]: -0.251 ± 0.073. For LSCHYCHSLFSGKPEVLDWQDQVFQFCCRDCCEDFARLRGVVSQCEHCRQEKLLHEKLRFSGVEKSFCSEGCVLLYKQDF [K36A] the value was -0.077 ± 0.042. As to LSCHYCHSLFSSKPEVLDWQDQVFQFCCRDCCEDFKRLRGVVSQCEHCRQEKLLHEKLRFSGVEKSFCSEGCVLLYKQDF [G12S], the abundance fitness was -0.038 ± 0.043.

Source of the values: the Human Domainome abundance scans (Beltran et al. 2025).
